Substitutions are numbered along the chain they refer to. Names and notes keep the numbering of the source.
T1: wild-type Skp (Escherichia coli, UniProt P0AEU7 21-161)
T1 sequence (looked up): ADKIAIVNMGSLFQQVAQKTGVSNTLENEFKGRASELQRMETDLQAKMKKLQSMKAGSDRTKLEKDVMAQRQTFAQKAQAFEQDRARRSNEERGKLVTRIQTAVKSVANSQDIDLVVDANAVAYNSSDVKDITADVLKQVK

T2: Skp-D128C-Cy3 (Escherichia coli, UniProt P0AEU7 21-161, D128C, Cy3 (Cy3-maleimide) on the introduced cysteine at 128)
T2 construct: Skp of Escherichia coli, each monomer 141 residues as printed; Extent of labeling greater than 90%; one dye on each of the three chains of the trimer; also called Cy3 labeled Skp mutant D128C; Skp-Cy3; source: E. coli BL21 (DE3), purified (Ni-NTA), labeled with Cy3-maleimide
T2 sequence (looked up): T1 sequence (looked up) with D128C

B1: OmpC (natural protein, Escherichia coli, UniProt P06996 22-367, looked up)
chain: AEVYNKDGNKLDLYGKVDGLHYFSDNKDVDGDQTYMRLGFKGETQVTDQLTGYGQWEYQIQGNSAENENNSWTRVAFAGLKFQDVGSFDYGRNYGVVYDVTSWTDVLPEFGGDTYGSDNFMQQRGNGFATYRNTDFFGLVDGLNFAVQYQGKNGNPSGEGFTSGVTNNGRDALRQNGDGVGGSITYDYEGFGIGGAISSSKRTDAQNTAAYIGNGDRAETYTGGLKYDANNIYLAAQYTQTYNATRVGSLGWANKAQNFEAVAQYQFDFGLRPSLAYLQSKGKNLGRGYDDEDILKYVDVGATYYFNKNMSTYVDYKINLLDDNQFTRDAGINTDNIVALGLVYQF
notes: Outer membrane protein OmpC of Escherichia coli; 346 residues as printed; Kept unfolded in 8 M urea and diluted into the Skp solution (final urea 0.38 M in stopped-flow); the printed 346 residues fit the mature protein; also called wild-type OmpC; urea-denatured OmpC; source: E. coli BL21 (DE3), purified (Ni-NTA) in 8 M urea, unfolded
B2: Skp-K55C-Cy3 (natural protein, Escherichia coli, UniProt P0AEU7 21-161, looked up)
chain: T1 sequence (looked up) with K55C
modifications: Cy3 (Cy3-maleimide) on the introduced cysteine at 55
notes: Skp of Escherichia coli, each monomer 141 residues as printed; Extent of labeling greater than 90%; one dye on each of the three chains of the trimer; also called Cy3 labeled Skp mutant K55C; Skp-Cy3; source: E. coli BL21 (DE3), purified (Ni-NTA), labeled with Cy3-maleimide
B3: Skp-E82C-Cy3 (natural protein, Escherichia coli, UniProt P0AEU7 21-161, looked up)
chain: T1 sequence (looked up) with E82C
modifications: Cy3 (Cy3-maleimide) on the introduced cysteine at 82
notes: Skp of Escherichia coli, each monomer 141 residues as printed; Extent of labeling greater than 90%; one dye on each of the three chains of the trimer; also called Cy3 labeled Skp mutant E82C; Skp-Cy3; source: E. coli BL21 (DE3), purified (Ni-NTA), labeled with Cy3-maleimide
B4: OmpC-D25C-Cy5 (natural protein, Escherichia coli, UniProt P06996 22-367, looked up)
chain: B1 chain with D25C
modifications: Cy5 (Cy5-maleimide) on the introduced cysteine at 25
notes: Outer membrane protein OmpC of Escherichia coli; 346 residues as printed; Extent of labeling greater than 90%; also called Cy5 labeled OmpC mutant D25C; source: E. coli BL21 (DE3), purified (Ni-NTA) in 8 M urea, unfolded, labeled with Cy5-maleimide
B5: OmpC-D290C-Cy5 (natural protein, Escherichia coli, UniProt P06996 22-367, looked up)
chain: B1 chain with D290C
modifications: Cy5 (Cy5-maleimide) on the introduced cysteine at 290
notes: Outer membrane protein OmpC of Escherichia coli; 346 residues as printed; Extent of labeling greater than 90%; also called Cy5 labeled OmpC mutant D290C; source: E. coli BL21 (DE3), purified (Ni-NTA) in 8 M urea, unfolded, labeled with Cy5-maleimide
B6: OmpC-L139C-Cy5 (natural protein, Escherichia coli, UniProt P06996 22-367, looked up)
chain: B1 chain with L139C
modifications: Cy5 (Cy5-maleimide) on the introduced cysteine at 139
notes: Outer membrane protein OmpC of Escherichia coli; 346 residues as printed; Extent of labeling greater than 90%; also called Cy5 labeled OmpC mutant L139C; source: E. coli BL21 (DE3), purified (Ni-NTA) in 8 M urea, unfolded, labeled with Cy5-maleimide
B7: transmembrane domain of OmpA (domain or fragment, Escherichia coli)
chain: APKDNTWYTGAKLGWSQYHDTGFINNNGPTHENQLGAGAFGGYQVNPYVGFEMGYDWLGRMPYKGSVENGAYKAQGVQLTAKLGYPITDDLDIYTRLGGMVWRADTKSNVYGKNHDTGVSPVFAGGVEYAITPEIATRLEYQWTNNIGDAHTIGTRPDNGMLSLGVSYRFGQGEAA
notes: Transmembrane beta-barrel domain of outer membrane protein OmpA of Escherichia coli; PDB 2GE4 is named as the structure of this domain; also called OmpA-TMD; source: E. coli BL21 (DE3), purified (Ni-NTA) in 8 M urea, unfolded
B8: OmpF (natural protein, Escherichia coli)
chain: AEIYNKDGNKVDLYGKAVGLHYFSKGNGENSYGGNGDMTYARLGFKGETQINSDLTGYGQWEYNFQGNNSEGADAQTGNKTRLAFAGLKYADVGSFDYGRNYGVVYDALGYTDMLPEFGGDTAYSDDFFVGRVGGVATYRNSNFFGLVDGLNFAVQYLGKNERDTARRSNGDGVGGSISYEYEGFGIVGAYGAADRTNLQEAQPLGNGKKAEQWATGLKYDANNIYLAANYGETRNATPITNKFTNTSGFANKTQDVLLVAQYQFDFGLRPSIAYTKSKAKDVEGIGDVDLVNYFEVGATYYFNKNMSTYVDYIINQIDSDNKLGVGSDDTVAVGIVYQF
notes: Outer membrane protein OmpF of Escherichia coli; probably the mature protein as for OmpC (surmise); also called wild-type OmpF; source: E. coli BL21 (DE3), purified (Ni-NTA) in 8 M urea, unfolded

Experiments:
[1] = biological target: Skp-D128C (Escherichia coli) (UniProt P0AEU7); assay: fluorescence correlation spectroscopy (FCS); Cy3 labeled OmpC in 8 M urea diluted dropwise into 50 mM PBS pH 7.0, 100 mM NaCl, 0.01% Tween 20 with 0.2 µM reduced Skp; molecular weight of the complex from the diffusion time with free Cy3 as reference
[2] = biological target: Skp-E82C (Escherichia coli) (UniProt P0AEU7); assay: as above
[3] = biological target: Skp-K55C (Escherichia coli) (UniProt P0AEU7); assay: as above
[4] = biological target: T1, wild-type Skp; assay: cell-based or functional assay
[5] = biological target: B2; assay: stopped-flow fluorescence (Cy3 self-quenching); OMP in 8 M urea mixed 1:20 with Cy3 labeled Skp mutant; both 0.03 µM final; 50 mM PBS pH 7.0, 100 mM NaCl, 0.01% Tween 20, 25°C; traces fitted to two or three exponentials; conditions: both partners purified
[6] = biological target: B3; assay: as above; conditions: both partners purified
[7] = biological target: T2, Skp-D128C-Cy3; assay: as above; conditions: both partners purified
[8] = biological target: B6; assay: FRET or BRET; stopped-flow FRET; Cy5 labeled OmpC mutant in 8 M urea mixed 1:20 with Cy3 labeled Skp mutant; both 0.03 µM final; 50 mM PBS pH 7.0, 100 mM NaCl, 0.01% Tween 20, 25°C; Cy5 emission, fitted to three exponentials; conditions: both partners purified
[9] = biological target: B5; assay: as above; conditions: both partners purified
[10] = biological target: B2; assay: as above; conditions: both partners purified
[11] = biological target: B3; assay: as above; conditions: both partners purified
[12] = biological target: T2, Skp-D128C-Cy3; assay: as above; conditions: both partners purified

Molecule | time constant τ1 of the first phase [5] | time constant τ1 of the first phase [6] | time constant τ1 of the first phase [7] | time constant τ1 of the fast phase [12] | further results
Cy3 labeled OmpC (from UniProt P06996 22-367) (natural protein) | – | – | – | – | stoichiometry N [1]: 1 OmpC:Skp; stoichiometry N [2]: 1 OmpC:Skp; stoichiometry N [3]: 1 OmpC:Skp
B1 | 82.6 ± 5.5 ms | 125 ± 7.8 ms | 188 ± 12 ms | – | aggregation of urea-denatured OmpC (1.5 µM) by light scatter at 380 nm, 25°C, with 0, 1.5, 4.5 and 7.5 µM wild-type Skp [4]: 5 fold molar excess
B2 | – | – | – | – | binding result [8]: binds; binding result [9]: binds
B3 | – | – | – | – | binding result [8]: binds; binding result [9]: binds
B4 | – | – | – | 143 ± 10 ms | time constant τ1 of the fast phase [10]: 73 ± 5.1 ms; time constant τ1 of the fast phase [11]: 101 ± 6.9 ms
B5 | – | – | – | 285 ± 19 ms | –
B6 | – | – | – | 208 ± 14 ms | –
B7 | 38.6 ± 2.7 ms | 61.7 ± 4.2 ms | 105 ± 7.3 ms | – | –
B8 | 61.3 ± 4.9 ms | 182 ± 11 ms | 270 ± 16 ms | – | –

Source: publication PMC3458824, “Direct Observation of the Uptake of Outer Membrane Proteins by the Periplasmic Chaperone Skp” (PLoS ONE, 2012)
